The results in this text go back to US20240115701A1.

Assay [1] deals with MabSelect Sure Protein A ligand (protein A resin, GE Healthcare). Kind of assay: batch resin-slurry partitioning on MabSelect Sure protein A resin; Elute: 20 mM NaAcetate, pH 3.5; reference mAb1.
The target is the same in assay [2]. Kind of assay: batch resin-slurry partitioning on MabSelect Sure protein A resin; High salt wash: 10 mM NaPhosphate, pH 6.5, 0.5M NaCl.
Assay [3] shares this target. As to the kind of experiment: batch resin-slurry partitioning on MabSelect Sure protein A resin; High salt wash: 10 mM NaPhosphate, pH 6.5, 0.5M NaCl; reference mAb2.
Assay [4] shares this target. Kind of assay: batch resin-slurry partitioning on MabSelect Sure protein A resin; High salt wash: 10 mM NaPhosphate, pH 6.5, 0.5M NaCl; reference mAb1.
Assay [5] has the same target. As to the kind of experiment: partitioning on protein A resin under loading conditions; reference mAb3.
Assay [6] shares this target. Kind of assay: batch resin-slurry partitioning on MabSelect Sure protein A resin; Strip: 100 mM acetic acid; reference mAb1.
For assay [7] the target is unchanged. As to the kind of experiment: batch resin-slurry partitioning on MabSelect Sure protein A resin; Strip: 100 mM acetic acid.
For assay [8] the target is unchanged. Kind of assay: batch resin-slurry partitioning on MabSelect Sure protein A resin; Elute: 20 mM NaAcetate, pH 3.5.
Assay [9] shares this target. As to the kind of experiment: batch resin-slurry partitioning on MabSelect Sure protein A resin; Equil/wash: 10 mM NaPhosphate, pH 6.5; reference mAb1.
The target is the same in assay [10]. Kind of assay: batch resin-slurry partitioning on MabSelect Sure protein A resin; Strip: 100 mM acetic acid; reference mAb2.
Assay [11] shares this target. As to the kind of experiment: batch resin-slurry partitioning on MabSelect Sure protein A resin; Equil/wash: 10 mM NaPhosphate, pH 6.5.
Assay [12] shares this target. As to the kind of experiment: batch resin-slurry partitioning on MabSelect Sure protein A resin; Elute: 20 mM NaAcetate, pH 3.5; reference mAb2.
For assay [13] the target is unchanged. As to the kind of experiment: batch resin-slurry partitioning on MabSelect Sure protein A resin; Equil/wash: 10 mM NaPhosphate, pH 6.5; reference mAb2.

In assay [1], phospholipase B-like 2 (PLBL2) displayed a log α (log KP PLBL2 - log KP mAb1) of 0.

phospholipase B-like 2 (PLBL2) (enzyme): the log KP (partition coefficient, bound/free) in assay [2], in assay [7], in assay [8] and in [11] was 0 throughout. Moreover, the log α (log KP PLBL2 - log KP mAb2) in [3] was -2; in [10], 0; in [12] it was -0.3; in assay [13] it was -2. Moreover, the log α (log KP PLBL2 - log KP mAb1) in assay [4] was -2; in assay [6], 0; in assay [9] it was -2. The substance further yielded a log α (log KP PLBL2 - log KP mAb3) in [5] of -2.
